According to paper PMC3839849 (Journal of molecular biology, 2013):

Target: CaV1.2 IQ domain TripleA mutant (CaV1.2 F1618A, F1619A, Y1622A) (human)
Experiment: ITC

B1: CaBP1 C-terminal lobe (domain or fragment)
chain: IGVKELRDAFREFDTNGDGEISTSELREAMRKLLGHQVGHRDIEEIIRDVDLNGDGRVDFEEFVRMMSR
Kd: 221 nM
dH: -1.45 ± 0.14 kcal/mol
stoichiometry N: 0.93 ± 0.01
